Results published in publication PMC7265302 (Nature Communications, 2020).

How the values were obtained:
Lpg2149 (aa 9–119) = Lpg2149 (aa 9–119) (Legionella pneumophila, UniProt Q5ZTL2 9-119); test: crystal structure; conditions: both partners purified
Lpg2149, wild type = Lpg2149, wild type (Legionella pneumophila, UniProt Q5ZTL2 1-119); test: ITC; conditions: both partners purified

B1: MvcA (aa 1–400) (enzyme)
chain: MIVRGINMTKIKLESPGFMVHKKLKSMSQSYGVMMTGVPAEVLGQMQAERSIPSINKTGNLKQQIAKEVSKVCHMMTEPTQSCGQASNDVCELLLGKIEAEKFHFTKYEALSADGDNLKNVLENTAPSSTNLLIRFEIDREDPPIVLVKTKNENFNPETAVKNKIYLLENKLYFIDKMGNLFNLGPGKKKCTQLFNAIGDSAEYSLCDPFVLEEPEKPEDFAISEIVDIFNEQKERFDFWIGSHSFTIYIPQTLGESPRQFYPYQAYFGSHTLQDWFVSDKDEYLSRIGIDKYIEKLAVLGKTTNTKERSDIYAEFFSKRGREAFFCAHLNEKRQPLRVKFKITEINPELALKNLQETQEFIDTHPGENPSDKVENYRNRAKLAMTEHLESLLDIKPESS
Lpg2149 (aa 9–119)
  binding result: binds

B2: MvcA, wild type (enzyme)
chain: MIVRGINMTKIKLESPGFMVHKKLKSMSQSYGVMMTGVPAEVLGQMQAERSIPSINKTGNLKQQIAKEVSKVCHMMTEPTQSCGQASNDVCELLLGKIEAEKFHFTKYEALSADGDNLKNVLENTAPSSTNLLIRFEIDREDPPIVLVKTKNENFNPETAVKNKIYLLENKLYFIDKMGNLFNLGPGKKKCTQLFNAIGDSAEYSLCDPFVLEEPEKPEDFAISEIVDIFNEQKERFDFWIGSHSFTIYIPQTLGESPRQFYPYQAYFGSHTLQDWFVSDKDEYLSRIGIDKYIEKLAVLGKTTNTKERSDIYAEFFSKRGREAFFCAHLNEKRQPLRVKFKITEINPELALKNLQETQEFIDTHPGENPSDKVENYRNRAKLAMTEHLESLLDIKPESSPSLFWKNVDKKEQEMTDSSRYKKGPS
Lpg2149, wild type
  Kd: ~28.1 nM
